The target of test [1] is Retromer (His10-SNAP-VPS26/VPS35/VPS29 trimer, AF488-labeled) (human) (UniProt O75436).
For test [2] the target is unchanged. This is another data set of the same source.

Regarding “Retromer (His10-SNAP-VPS26/VPS35/VPS29 trimer, AF488-labeled) (from UniProt O75436;Q96QK1;Q9UBQ0) (complex)”, the mean Retromer complexes per cluster (Retromer complexes per cluster) in test [1] worked out at 2.7. In test [2], this substance registered a percent of particles that are dimers of 35%, a percent of particles that are monomers of 18%, a percent of particles that are pentamers or higher-order oligomers up to ten of 10% and a percent of particles that are tetramers of 13%. This substance returned a percent of particles that are trimers in test [2] of 24%.

The values above are taken from doi:10.1101/2020.03.31.018150.
